Key:
infarcted heart area = assay: Revascularization following heart infarction (LAD ligation), Examples 16-17; assay type: in vivo, mice
Protocol: Chronic myocardial ischemia was replicated by ligation of the left anterior descending (LAD) coronary artery using anesthetized 10 week old normal C57B16 mice. For PDGF-C treatment mice, 10 μg of recombinant human PDGF-CC core domain protein produced in baculovirus infected insect cells were administered after heart infarction using a subcutaneous osmotic minipump for seven days (ALZET™osmotic pump, DURECT Corporation, Cupertino, Calif.). Seven days after LAD ligation, infarcted hearts were fixed and collected. The PDGF-CC core domain protein (SEQ ID NO: 40) corresponds to corresponds to residues 230-345 of full-length PDGF-C protein i.e. amino acids 230-345 of SEQ ID NO:3. The hearts were sectioned longitudinally into 6 μm sections. Hematoxylin-eosine and immunohistochemical stainings were performed using thrombomodulin as a marker for endothelial cells. Smooth muscle alpha-actin was used as a marker for vascular smooth muscle cells. Infarcted areas and vessel densities were calculated using a Quantinet Q600 image analysis system (Leica, Brussels, Belgium). Data were statistically analyzed using the Student T test.
The same experiment as discussed in Example 16 was repeated using 30 μg recombinant PDGF-C per mouse.

HMVEC = HMVEC proliferation assay; assay type: cell-based, human; details: 50 ng/ml, 7 days
Protocol: Cell migration assays were performed on growth arrested confluent HMVEC, BAEC or hSMC cells. Cell monolayers were wounded with a rubber policeman and washed with serum-free medium. Dishes were then incubated for 20 hours in serum-free medium containing VEGF165, PDGF-AA, (R&D Systems, Minneapolis USA) or PDGF-CC. Each assay included two dishes per condition and was repeated three times independently. Cells were photographed at 40× magnification, and migration percentage corresponding to the ratio between area of the cells and the total area of the wound (Biocom visiol@b 2000 version 4.52, San Diego). For HMVEC proliferation assay, cells were seeded in 96-well plates (5 wells per condition), and incubated with VEGF, PDGF-AA, or PDGF-CC (50 ng/ml) after serum starvation. After 7 days, viable cells were counted using the cell Titer-glo luminescent cell viability assay. For NIH-3T3 and hSMC proliferation assay, cells cultured in 96-well plates were serum-starved overnight, followed by treatment with growth factors at different concentrations. Two days later, cell numbers were counted and proliferation percentage calculated, using cells cultured in medium containing 10% serum as control. Aortic ring assay was performed as described 51. […] Aortic rings were analysed at day 9 of culturing. […]

PDGF alpha receptors = PDGF alpha receptors (Homo sapiens, UniProt P16234); assay: PDGF alpha-receptor phosphorylation in PAE cells; assay type: cell-based; design: expressed in transfected cells; details: 100 ng/ml
Protocol: To test if PDGF-C causes increased phosphorylation of the PDGF alpha-receptor, full length and truncated PDGF-C were tested for their capacity to bind to the PDGF alpha-receptor and stimulate increased phosphorylation. Serum-starved porcine aortic endothelial (PAE) cells stably expressing the human PDGF alpha-receptor were incubated on ice for 90 minutes with PBS supplemented with 1 mg/ml BSA and 10 ng/ml of PDGF-AA, 100 ng/ml of full length human PDGF-CC homodimers (flPDGF-CC), 100 ng/ml of truncated PDGF-CC homodimers (cPDGF-CC), or a mixture of 10 ng/ml of PDGF-AA and 100 ng/ml of truncated PDGF-CC. Full length and truncated PDGF-CC homodimers were produced as described above. Sixty minutes after the addition of the polypeptides, the cells were lysed in lysis buffer (20 mM tris-HCl, pH 7.5, 0.5% Triton X-100, 0.5% deoxycholic acid, 10 mM EDTA, 1 mM orthovanadate, 1 mM PMSF 1% Trasylol). […] Bound antibodies were detected using enhanced chemiluminescence (ECL, Amersham Inc). The filters were then stripped and reprobed with the PDGF alpha-receptor rabbit antisera, and the amount of receptors was determined by incubation with horseradish peroxidase-conjugated anti-rabbit antibodies. Bound antibodies were detected using enhanced chemiluminescence (ECL, Amersham Inc). […]

[1] = 10 μg by osmotic minipump for seven days
[2] = 10 μg by osmotic minipump for seven days, average ±SD

Sequence of PDGF alpha receptors (P16234 24-1089): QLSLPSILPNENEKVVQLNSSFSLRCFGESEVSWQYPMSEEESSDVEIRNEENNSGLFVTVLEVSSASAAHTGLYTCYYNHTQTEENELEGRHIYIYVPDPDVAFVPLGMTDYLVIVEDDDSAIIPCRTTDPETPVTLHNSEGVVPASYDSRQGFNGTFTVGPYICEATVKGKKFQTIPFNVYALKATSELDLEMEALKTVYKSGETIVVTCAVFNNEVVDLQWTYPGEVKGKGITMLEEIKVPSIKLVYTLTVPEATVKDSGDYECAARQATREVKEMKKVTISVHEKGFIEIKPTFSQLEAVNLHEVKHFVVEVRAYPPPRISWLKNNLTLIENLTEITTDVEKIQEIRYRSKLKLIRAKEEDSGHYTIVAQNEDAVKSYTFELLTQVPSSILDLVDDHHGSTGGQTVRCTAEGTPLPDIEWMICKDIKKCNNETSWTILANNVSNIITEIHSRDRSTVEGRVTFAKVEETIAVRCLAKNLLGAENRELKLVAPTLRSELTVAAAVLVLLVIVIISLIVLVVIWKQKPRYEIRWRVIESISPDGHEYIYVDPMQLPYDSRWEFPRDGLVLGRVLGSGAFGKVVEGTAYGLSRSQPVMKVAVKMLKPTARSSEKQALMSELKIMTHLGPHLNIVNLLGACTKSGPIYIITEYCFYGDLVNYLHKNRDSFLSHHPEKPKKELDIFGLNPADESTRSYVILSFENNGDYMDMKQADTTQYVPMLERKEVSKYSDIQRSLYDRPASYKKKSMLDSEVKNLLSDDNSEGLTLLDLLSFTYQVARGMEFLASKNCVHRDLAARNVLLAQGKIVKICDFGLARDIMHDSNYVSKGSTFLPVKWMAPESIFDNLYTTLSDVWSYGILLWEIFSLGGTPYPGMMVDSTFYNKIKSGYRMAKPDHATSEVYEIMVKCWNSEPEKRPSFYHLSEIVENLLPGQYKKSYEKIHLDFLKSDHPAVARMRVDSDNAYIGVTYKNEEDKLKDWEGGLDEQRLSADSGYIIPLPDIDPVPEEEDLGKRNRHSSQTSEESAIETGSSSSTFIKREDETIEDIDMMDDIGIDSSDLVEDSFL

B1: PDGF-CC: recombinant human PDGF-CC core domain homodimer, residues 230-345 of full-length PDGF-C (SEQ ID NO:40), produced in baculovirus infected insect cells (protein)
chain: GRKSRVVDLNLLTEEVRLYSCTPRNFSVSIREELKRTDTIFWPGCLLVKRCGGNCACCLHNCNECQCVPSKVTKKYHEVLQLRPKTGVRGLHKSLTDVALEHHEECDCVCRGSTGG
modifications: homodimer; PDGF-C core domain
large vessel (>30 μm) density relative to normal (untreated) mice (infarcted heart area; [1]): 114% | medium vessel (10-30 μm) density relative to normal (untreated) mice (infarcted heart area; [1]): 111% | small vessel (<10 μm) density relative to normal (untreated) mice (infarcted heart area; [1]): 159.4% | large vessel (>30 μm) density (infarcted heart area; [2]): 8.3±3.2 large vessels/mm^2 | medium vessel (10-30 μm) density (infarcted heart area; [2]): 14.5±3.7 medium vessels/mm^2 | small vessel (<10 μm) density (infarcted heart area; [2]): 33.2±12.5 small vessels/mm^2 | total vessel density (infarcted heart area; 10 μg by osmotic minipump for seven days, average ±SD, n=6): 56±16.6 total vessels/mm^2 | total vessel density relative to normal (untreated) mice (infarcted heart area; 10 μg by osmotic minipump for seven days, infarcted area): about 136% | SMA positive large vessel density relative to normal (untreated) mice (infarcted heart area; 30 μg per mouse over 7 days): 114% | SMA positive medium vessel density relative to normal (untreated) mice (infarcted heart area; 30 μg per mouse over 7 days): 142% | SMA positive small vessel density relative to normal (untreated) mice (infarcted heart area; 30 μg per mouse over 7 days): 145% | thrombomodulin positive large vessel density relative to normal (untreated) mice (infarcted heart area; 30 μg per mouse over 7 days): 167% | thrombomodulin positive medium vessel density relative to normal (untreated) mice (infarcted heart area; 30 μg per mouse over 7 days): 153% | thrombomodulin positive small vessel density relative to normal (untreated) mice (infarcted heart area; 30 μg per mouse over 7 days): 147% | total SMA positive vessel density relative to normal (untreated) mice (infarcted heart area; 30 μg per mouse over 7 days): 141% | total thrombomodulin positive vessel density relative to normal (untreated) mice (infarcted heart area; 30 μg per mouse over 7 days): 151% | EC proliferation (HMVEC): no effect | PDGF alpha-receptor tyrosine phosphorylation (PDGF alpha receptors): efficiently induced

— patent publication US20070172423A1, “Composition and method for modulating vasculogenesis for angiogenesis” (priority 1998, published 2007)
